B1: E3 ubiquitin-protein ligase makorin-1 (Homo sapiens), Q9UHC7 (parent)
chain: MAEAATPGTTATTSGAGAAAATAAAASPTPIPTVTAPSLGAGGGGGGSDGSGGGWTKQVTCRYFMHGVCKEGDNCRYSHDLSDSPYSVVCKYFQRGYCIYGDRCRYEHSKPLKQEEATATELTTKSSLAASSSLSSIVGPLVEMNTGEAESRNSNFATVGAGSEDWVNAIEFVPGQPYCGRTAPSCTEAPLQGSVTKEESEKEQTAVETKKQLCPYAAVGECRYGENCVYLHGDSCDMCGLQVLHPMDAAQRSQHIKSCIEAHEKDMELSFAVQRSKDMVCGICMEVVYEKANPSERRFGILSNCNHTYCLKCIRKWRSAKQFESKIIKSCPECRITSNFVIPSEYWVEEKEEKQKLILKYKEAMSNKACRYFDEGRGSCPFGGNCFYKHAYPDGRREEPQRQKVGTSSRYRAQRRNHFWELIEERENSNPFDNDEEEVVTFELGEMLLMLLAAGGDDELTDSEDEWDLFHDELEDFYDLDL

In this test the parent is B1. Conditions: with ubc_human UBC.
On to MAEAATPGTTATTSGAGAAAATAAAASPTPIPTVTAPSLGAGGGGGGSDGSGGGWTKQVTCRYFMHGVCKEGDNCRYSHDLSDSPYSVVCKYFQRGYCIYGDRCRYEHSKPLKQEEATATELTTKSSLAASSSLSSIVGPLVEMNTGEAESRNSNFATVGAGSEDWVNAIEFVPGQPYCGRTAPSCTEAPLQGSVTKEESEKEQTAVETKKQLCPYAAVGECRYGENCVYLHGDSCDMCGLQVLHPMDAAQRSQHIKSCIEAHEKDMELSFAVQRSKDMVCGICMEVVYEKANPSERRFGILSNCNETYCLKCIRKWRSAKQFESKIIKSCPECRITSNFVIPSEYWVEEKEEKQKLILKYKEAMSNKACRYFDEGRGSCPFGGNCFYKHAYPDGRREEPQRQKVGTSSRYRAQRRNHFWELIEERENSNPFDNDEEEVVTFELGEMLLMLLAAGGDDELTDSEDEWDLFHDELEDFYDLDL [H307E], for which the “effect of a mutation on the interaction” value is listed as “disrupting interaction”.

The values above are taken from IntAct's records for PubMed 19536131.
